Blank lines part the entries; values can stand above or below the binder they belong to.
Key:
[1] = target: T1, Human VEGF121 (R&D SYSTEMS Cat #4644-VS) (human, UniProt P15692-9 27-147); assay: cell-based or functional assay
T1 sequence (looked up): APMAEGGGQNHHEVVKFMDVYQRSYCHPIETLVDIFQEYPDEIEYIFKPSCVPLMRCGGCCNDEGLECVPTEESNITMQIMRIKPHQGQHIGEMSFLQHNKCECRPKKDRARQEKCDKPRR

[2] = target: T2, Human VEGF165 (REGN110) (human, UniProt P15692-4 27-191); assay: SPR (Biacore 3000), 25C, trap captured by REGN18, hVEGF165 injected
T2 construct: also called hVEGF165; REGN110-L9
Method: (§1) Equilibrium dissociation constants (KD values) for human VEGF₁₆₅ binding to various purified VEGF mini-trap constructs were determined using a real-time surface plasmon resonance biosensor using a Biacore 3000 instrument. All binding studies were performed in 10 mM HEPES, 150 mM NaCl, 3 mM EDTA, and 0.05% v/v Surfactant Tween-20; pH 7.4 (HBS-ET) running buffer at 25° C. The Biacore sensor surface was first derivatized by amine coupling with a monoclonal mouse anti-VEGFR1 antibody (REGN18) to capture VEGF mini-trap constructs. Binding studies were performed on the following human VEGF reagents: human VEGF₁₆₅. […] Dissociation of bound VEGF₁₆₅ reagent from VEGF mini-trap constructs was monitored for 60 minutes in HBS-ET running buffer. Kinetic association (ka) and dissociation (kd) rate constants were determined by fitting the real-time sensorgrams to a 1:1 binding model using Scrubber 2.0c curve fitting software. Binding dissociation equilibrium constants (KD) and dissociative half-lives (t1/2) were calculated from the kinetic rate constants as: […]

[3] = target: T1, Human VEGF121 (R&D SYSTEMS Cat #4644-VS); assay: cell-based or functional assay; remark: listed apart in the source
[4] = target: T1, Human VEGF121 (R&D SYSTEMS Cat #4644-VS); assay: cell-based or functional assay; remark: listed apart in the source
[5] = target: T1, Human VEGF121 (R&D SYSTEMS Cat #4644-VS); assay: cell-based or functional assay; remark: listed apart in the source
[6] = target: T1, Human VEGF121 (R&D SYSTEMS Cat #4644-VS); assay: cell-based or functional assay; remark: listed apart in the source
[7] = target: T2, Human VEGF165 (REGN110); assay: cell-based or functional assay
[8] = target: T2, Human VEGF165 (REGN110); assay: SPR, 25C, trap captured by REGN18, hVEGF165 injected
Method: as §1

[9] = target: T1, Human VEGF121 (R&D SYSTEMS Cat #4644-VS); assay: cell-based or functional assay; remark: listed apart in the source

B1: REGN10187, VEGF Trap hIgG4 stealth Fc (Fc fusion)
chain: SDTGRPFVEMYSEIPEIIHMTEGRELVIPCRVTSPNITVTLKKFPLDTLIPDGKRIIWDSRKGFIISNATYKEIGLLTCEATVNGHLYKTNYLTHRQTNTIIDVVLSPSHGIELSVGEKLVLNCTARTELNVGIDFNWEYPSSKHQHKKLVNRDLKTQSGSEMKKFLSTLTIDGVTRSDQGLYTCAASSGLMTKKNSTFVRVHEKESKYGPPCPPCPAPPVAGPSVFLFPPKPKDTLMISRTPEVTCVVVDVSQEDPEVQFNWYVDGVEVHNAKTKPREEQFNSTYRVVSVLTVLHQDWLNGKEYKCKVSNKGLPSSIEKTISKAKGQPREPQVYTLPPSQEEMTKNQVSLTCLVKGFYPSDIAVEWESNGQPENNYKTTPPVLDSDGSFFLYSRLTVDKSRWQEGNVFSCSVMHEALHNHYTQKSLSLSLGK
IC50, Inhibition of 20 pM VEGF121, VEGFR1 assay (luciferase) [1]: 1.25e-11 M
2.5 nM hVEGF165 Bound (RU) [2]: 10.5 RU
Kd [2]: 1.82 pM
koff [2]: 1.73e-05 s⁻¹
kon [2]: 9.5e+06 M⁻¹ s⁻¹
t½ [2]: 11.1 h
IC50 (read off the curve); NFkB-luciferase reporter (RLU), 293/D9/VEGFR1 cells, VEGF121 constant 40 pM [D] [3]: ~1e-11 M

B5: REGN10105, VEGF mini-trap hIgG2 Fc w/2Cys (other)
chain: SDTGRPFVEMYSEIPEIIHMTEGRELVIPCRVTSPNITVTLKKFPLDTLIPDGKRIIWDSRKGFIISNATYKEIGLLTCEATVNGHLYKTNYLTHRQTNTIIDVVLSPSHGIELSVGEKLVLNCTARTELNVGIDFNWEYPSSKHQHKKLVNRDLKTQSGSEMKKFLSTLTIDGVTRSDQGLYTCAASSGLMTKKNSTFVRVHEKVECPPCPAPPVA
notes: IdeS cleaved from the IgG2 trap; they are kept as one molecule here; also called REGN10105-L3
IC50, Inhibition of 20 pM VEGF121, VEGFR1 assay (luciferase) [1]: 1.68e-11 M
IC50, VEGFR1 40 pM R&D VEGF121 (luciferase) [6]: 1.74e-11 M
IC50, VEGFR1 40 pM VEGF165 (REGN110) (luciferase) [7]: 1.06e-11 M
2.5 nM hVEGF165 Bound (RU) [2]: 10.5 RU
Kd [2]: 1.89 pM
koff [2]: 1.44e-05 s⁻¹
kon [2]: 7.62e+06 M⁻¹ s⁻¹
t½ [2]: 13.3 h
2 nM VEGF165 Bound (RU) [8]: 20.4 RU
Kd [8]: 1.08 pM
koff [8]: ≤ 1e-05 s⁻¹
kon [8]: 9.3e+06 M⁻¹ s⁻¹
t½ [8]: ≥ 19.2 h
IC50 (read off the curve); NFkB-luciferase reporter (RLU), 293/D9/VEGFR1 cells, VEGF121 constant 40 pM [E] [9]: ~2e-11 M

Continued, values first:

IC50, Inhibition of 20 pM VEGF121, VEGFR1 assay (luciferase) [1]: 2.02e-11 M
2.5 nM hVEGF165 Bound (RU) [2]: 4.2 RU
Kd [2]: ≤ 1.37 pM
koff [2]: ≤ 1e-05 s⁻¹
kon [2]: 7.3e+06 M⁻¹ s⁻¹
t½ [2]: ≥ 19.2 h
IC50 (read off the curve); NFkB-luciferase reporter (RLU), 293/D9/VEGFR1 cells, VEGF121 constant 40 pM [A] [4]: ~2e-11 M
B2: REGN10117, VEGF Trap hIgG2 Fc w/4 Cys (Fc fusion)
chain: SDTGRPFVEMYSEIPEIIHMTEGRELVIPCRVTSPNITVTLKKFPLDTLIPDGKRIIWDSRKGFIISNATYKEIGLLTCEATVNGHLYKTNYLTHRQTNTIIDVVLSPSHGIELSVGEKLVLNCTARTELNVGIDFNWEYPSSKHQHKKLVNRDLKTQSGSEMKKFLSTLTIDGVTRSDQGLYTCAASSGLMTKKNSTFVRVHEKERKCCVECPPCPAPPVAGPSVFLFPPKPKDTLMISRTPEVTCVVVDVSHEDPEVQFNWYVDGVEVHNAKTKPREEQFNSTFRVVSVLTVVHQDWLNGKEYKCKVSNKGLPAPIEKTISKTKGQPREPQVYTLPPSREEMTKNQVSLTCLVKGFYPSDIAVEWESNGQPENNYKTTPPMLDSDGSFFLYSKLTVDKSRWQQGNVFSCSVMHEALHNHYTQKSLSLSPGK

IC50 (read off the curve); NFkB-luciferase reporter (RLU), 293/D9/VEGFR1 cells, VEGF121 constant 40 pM [B] [5]: ~1e-11 M
IC50, Inhibition of 20 pM VEGF121, VEGFR1 assay (luciferase) [1]: 1.34e-11 M
2.5 nM hVEGF165 Bound (RU) [2]: 12.2 RU
Kd [2]: 1.78 pM
koff [2]: 1.7e-05 s⁻¹
kon [2]: 9.5e+06 M⁻¹ s⁻¹
t½ [2]: 11.3 h
B3: mREGN10104, VEGF mini-trap hIgG1 stealth Fc (other)
chain: SDTGRPFVEMYSEIPEIIHMTEGRELVIPCRVTSPNITVTLKKFPLDTLIPDGKRIIWDSRKGFIISNATYKEIGLLTCEATVNGHLYKTNYLTHRQTNTIIDVVLSPSHGIELSVGEKLVLNCTARTELNVGIDFNWEYPSSKHQHKKLVNRDLKTQSGSEMKKFLSTLTIDGVTRSDQGLYTCAASSGLMTKKNSTFVRVHEKDKTHTCPPCPAPPVA
notes: IdeS cleaved from REGN10104; also called Mini-REGN10104

IC50 (read off the curve); NFkB-luciferase reporter (RLU), 293/D9/VEGFR1 cells, VEGF121 constant 40 pM [B] [5]: ~2e-11 M
IC50, Inhibition of 20 pM VEGF121, VEGFR1 assay (luciferase) [1]: 1.91e-11 M
2.5 nM hVEGF165 Bound (RU) [2]: 7.3 RU
Kd [2]: 1.1 pM
koff [2]: 1.01e-05 s⁻¹
kon [2]: 9.2e+06 M⁻¹ s⁻¹
t½ [2]: 19.1 h
B4: REGN10104, VEGF Trap hIgG1 stealth Fc (Fc fusion)
chain: SDTGRPFVEMYSEIPEIIHMTEGRELVIPCRVTSPNITVTLKKFPLDTLIPDGKRIIWDSRKGFIISNATYKEIGLLTCEATVNGHLYKTNYLTHRQTNTIIDVVLSPSHGIELSVGEKLVLNCTARTELNVGIDFNWEYPSSKHQHKKLVNRDLKTQSGSEMKKFLSTLTIDGVTRSDQGLYTCAASSGLMTKKNSTFVRVHEKDKTHTCPPCPAPPVAGPSVFLFPPKPKDTLMISRTPEVTCVVVDVSQEDPEVQFNWYVDGVEVHNAKTKPREEQFNSTYRVVSVLTVLHQDWLNGKEYKCKVSNKGLPSSIEKTISKAKGQPREPQVYTLPPSRDELTKNQVSLTCLVKGFYPSDIAVEWESNGQPENNYKTTPPVLDSDGSFFLYSKLTVDKSRWQQGNVFSCSVMHEALHNHYTQKSLSLSPGK

Reference: patent publication US20210347852A1 (Regeneron, published 2021)
